US20210145976A1 (ARO BIOTHERAPEUTICS, published 2021)
Numbering of substitutions follows the chain as printed.

B1: SEQ ID NO 44 (designed binder)
chain: MLPAPKNLVVSRVTEDSARLSWTAPDAAFDSFYIEYYESLPDGEAIVLTVPGSERSYDLTGLKPGTEYAVYIYGVKGGYYSRPLSAIFTT
notes: FN3 domain
B2: SEQ ID NO 49 (designed binder)
chain: MLPAPKNLVVSRVTEDSARLSWTAPDAAFDSFGISYLEWWEDGEAIVLTVPGSERSYDLTGLKPGTEYWVSIAGVKGGKRSYPLSAIFTT
notes: FN3 domain
B3: SEQ ID NO 112 (designed binder)
chain: MLPAPKNLVVSRVTEDSARLSWTAPDAAFDSFFIAYFEFANPGEAIVLTVPGSERSYDLTGLKPGTEYKVVIQGVKGGTPSEPLSAISTT
notes: FN3 domain
B4: SEQ ID NO 190 (designed binder)
chain: MLPAPKNLVVSRVTEDSARLSWTAPDAAFDSFFIGYPEYPATGEAITLFVPGSERSYDLTGLKPGTEYNVVIQGVKGGRPSNPLVVAFTT
notes: FN3 domain
B5: SEQ ID NO 226 (designed binder)
chain: MLPAPKNLVVSRVTEDSARLSWTAPDAAFDSFHIIYEEVLTEGEAIYLRVPGSERSYDLTGLKPGTEYGVTIKGVKGGAYSIPLIATFTT
notes: FN3 domain
B6: SEQ ID NO 217 (designed binder)
chain: MLPAPKNLVVSRVTEDSARLSWTAPDAAFDSFIIEYWEWYFAGEAIVLTVPGSERSYDLTGLKPGTEYTVWITGVKGGTWSEPLSAIFTT
notes: FN3 domain
B7: SEQ ID NO 92 (designed binder)
chain: B6 chain with I33L, E35R, F41V, A42L, T69Y, W71E, T73S, T79W, W80Q, E82W
notes: FN3 domain
B8: SEQ ID NO 259 (designed binder)
chain: B6 chain with I33T, W37F, W39F, Y40V, F41D, T69W, W71E, T73W, T79S, E82K
notes: FN3 domain
B9: SEQ ID NO 261 (designed binder)
chain: MLPAPKNLVVSRVTEDSARLSWTAPDAAFDSFTIVYGEWGVPGEAIVLTVPGSERSYDLTGLKPGTEYDVWIEGVKGGDLSWPLSAIVTT
notes: FN3 domain
B10: SEQ ID NO 194 (designed binder)
chain: MLPAPKNLVVSRVTEDSARLSWTAPDAAFDSFEIDYDELAIYGEAIVLTVPGSERSYDLTGLKPGTEYRVFIYGVKGGWTSWPLSTIFTT
notes: FN3 domain
B11: SEQ ID NO 238 (designed binder)
chain: MLPAPKNLVVSRVTEDSARLSWTAPDAAFDSFKIFYQEFGGEAIVLTVPGSERSYDLTGLKPGTEYWVDIYGVKGGYTSSPLSAIFTT
notes: FN3 domain
B12: SEQ ID NO 95 (designed binder)
chain: B2 chain with G33R, L37Y, W40Y, E41D, D42L, S71D, K79Y, R80Y
notes: FN3 domain
B13: SEQ ID NO 104 (designed binder)
chain: B1 chain with R12H, Y33D, S39L, L40V, P41G, D42S, A69Y, Y71A, Y80L
notes: FN3 domain
B14: SEQ ID NO 134 (designed binder)
chain: B1 chain with Y33W, E35D, S39R, L40K, P41Y, D42V, A69E, Y71T, Y79W, R82D
notes: FN3 domain
B15: SEQ ID NO 222 (designed binder)
chain: B1 chain with Y37F, S39W, L40T, P41G, D42S, A69N, Y71A, Y79A, Y80V, R82Y
notes: FN3 domain
B16: SEQ ID NO 303 (designed binder)
chain: B3 chain with S88F
notes: FN3 domain
B17: SEQ ID NO 296 (designed binder)
chain: MLPAPKNLVVSRVTEDSARLSWTAPDAAFDSFFIGYLEPQPPGEAIILTVPGSERSYDLTGLKPGTEYNVTIQGVKGGFPSMPLSAIFTT
notes: FN3 domain
B18: SEQ ID NO 307 (designed binder)
chain: MLPAPKNLVVSRVTEDSARLSWTAPDAAFDSFPITYSEPAHYGEAIVLTVPGSERSYDLTGLKPGTEYHVGIMGVKGGVFSSPLSAIFTT
notes: FN3 domain
B19: SEQ ID NO 278 (designed binder)
chain: MLPAPKNLVVSRVTEDSARLSWTAPDAAFDSFPIAYAEPRPDGEAIVLTVPGSERSYDLTGLKPGTEYSVLIHGVKGGHLSDPLSAIFTT
notes: FN3 domain
B20: SEQ ID NO 235 (designed binder)
chain: MLPAPKNLVVSRVTEDSARLSWTAPDAAFDSFSINYREWWSDGEAIYLPVPGSERSYDLTGLKPGTEYAVYIQGVKGGSRSFPLHAWFTT
notes: FN3 domain
B21: SEQ ID NO 252 (designed binder)
chain: MLPAPKNLVVSRVTEDSARLSWTAPDAAFDSFDIGYTEYGGYGEAIVLTVPGSERSYDLTGLKPGTEYWVLIQGVKGGGSSVPLSAIFTT
notes: FN3 domain
B22: SEQ ID NO 302 (designed binder)
chain: B21 chain with G35Y, T37P, G40Y, G41D, Y42R, W69T, L71Y, Q73D, S80G, V82G
notes: FN3 domain
B23: SEQ ID NO 115 (designed binder)
chain: MLPAPKNLVVSRVTEDSARLSWTAPDAAFDSFFIGYLEPQPPGEAIVLTVPGSERSYDLTGLKPGTEYNVTIQGVKGGFPSMPLSAIFTTT
notes: FN3 domain
B24: SEQ ID NO 62 (designed binder)
chain: MLPAPKNLVVSRVTEDSARLSWTAPDAAFDSFPILYLELNHHGEEIVLTVPGSERSYDLTGLKPGTEYWVYIFGVKGGMYSAPLSAIFTTGG
modifications: VC-MMAF conjugate (site not given)

biological target: T1, recombinant biotinylated CD71 extracellular domain (Sino Biologics) with an N-terminal 6His tag (human, UniProt P02786 89-760, biotinylated (sites not given)); test: screening ELISA
T1 construct: extracellular domain; also called hCD71; huCD71
T1 sequence (P02786 other isoform, or with tags, fused parts or gaps): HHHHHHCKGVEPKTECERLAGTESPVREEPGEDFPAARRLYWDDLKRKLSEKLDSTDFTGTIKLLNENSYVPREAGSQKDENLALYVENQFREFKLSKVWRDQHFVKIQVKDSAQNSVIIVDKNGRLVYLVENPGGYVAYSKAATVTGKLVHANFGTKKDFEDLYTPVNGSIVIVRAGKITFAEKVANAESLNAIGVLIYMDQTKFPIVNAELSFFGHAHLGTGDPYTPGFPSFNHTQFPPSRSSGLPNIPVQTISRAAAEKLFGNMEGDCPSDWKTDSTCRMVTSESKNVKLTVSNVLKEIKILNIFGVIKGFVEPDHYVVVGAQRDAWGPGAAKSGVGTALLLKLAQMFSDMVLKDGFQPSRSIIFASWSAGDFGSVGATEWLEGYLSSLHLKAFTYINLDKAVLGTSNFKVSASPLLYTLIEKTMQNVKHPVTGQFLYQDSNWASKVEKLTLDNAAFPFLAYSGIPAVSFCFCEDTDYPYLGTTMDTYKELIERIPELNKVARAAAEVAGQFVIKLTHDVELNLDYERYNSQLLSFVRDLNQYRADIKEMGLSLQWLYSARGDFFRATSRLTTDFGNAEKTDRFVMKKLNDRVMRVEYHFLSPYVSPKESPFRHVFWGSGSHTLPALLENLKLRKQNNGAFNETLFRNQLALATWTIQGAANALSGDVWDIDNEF
Protocol: (§1) To screen for FN3 domains that specifically bind CD71, streptavidin-coated Maxisorp plates (Nunc catalog 436110) were blocked for 1 hour in Starting Block T20 (Pierce) and then coated with biotinylated CD71 (using same antigen as in panning) or negative controls (an unrelated Fc-fused recombinant protein and human serum albumin) for 1 hour. Plates were rinsed with TBST and diluted lysate was applied to plates for 1 hour. Following additional rinses, wells were treated with HRP-conjugated anti-V5 tag antibody (Abcam, ab1325), for 1 hour and then assayed with POD (Roche, 11582950001).

Row | hCD71 | Binder
1 | 176000 | B1
2 | 1.09e+07 | B2

biological target: T1, recombinant biotinylated CD71 …; test: screening ELISA; remark: another data set of the same source

Row | hCD71 | Binder
3 | 3.65e+06 | B3
4 | 3.21e+06 | B4
5 | 4.33e+06 | B5
6 | 3.9e+06 | B6
7 | 3.85e+06 | B7
8 | 2.44e+06 | B8
9 | 4.23e+06 | B9
10 | 562000 | B10
11 | 2.88e+06 | B11
12 | 4.21e+06 | B12
13 | 3.58e+06 | B13
14 | 3.08e+06 | B14
15 | 1.74e+06 | B15
16 | 3.51e+06 | B16
17 | 2.7e+06 | B17
18 | 2.19e+06 | B18
19 | 3.69e+06 | B19
20 | 3.92e+06 | B20
21 | 2.98e+06 | B21
22 | 2.67e+06 | B22
23 | 2.92e+06 | B23

biological target: T1, recombinant biotinylated CD71 …; test: screening ELISA, ratio
Protocol: as §1

Row | huCD71/Fc | Binder
24 | 44.8 | B1
25 | 948 | B2

biological target: T2, CD71 on SK-BR-3 cells (human, UniProt P02786 1-760); test: cell-based or functional assay
T2 sequence (P02786 whole entry): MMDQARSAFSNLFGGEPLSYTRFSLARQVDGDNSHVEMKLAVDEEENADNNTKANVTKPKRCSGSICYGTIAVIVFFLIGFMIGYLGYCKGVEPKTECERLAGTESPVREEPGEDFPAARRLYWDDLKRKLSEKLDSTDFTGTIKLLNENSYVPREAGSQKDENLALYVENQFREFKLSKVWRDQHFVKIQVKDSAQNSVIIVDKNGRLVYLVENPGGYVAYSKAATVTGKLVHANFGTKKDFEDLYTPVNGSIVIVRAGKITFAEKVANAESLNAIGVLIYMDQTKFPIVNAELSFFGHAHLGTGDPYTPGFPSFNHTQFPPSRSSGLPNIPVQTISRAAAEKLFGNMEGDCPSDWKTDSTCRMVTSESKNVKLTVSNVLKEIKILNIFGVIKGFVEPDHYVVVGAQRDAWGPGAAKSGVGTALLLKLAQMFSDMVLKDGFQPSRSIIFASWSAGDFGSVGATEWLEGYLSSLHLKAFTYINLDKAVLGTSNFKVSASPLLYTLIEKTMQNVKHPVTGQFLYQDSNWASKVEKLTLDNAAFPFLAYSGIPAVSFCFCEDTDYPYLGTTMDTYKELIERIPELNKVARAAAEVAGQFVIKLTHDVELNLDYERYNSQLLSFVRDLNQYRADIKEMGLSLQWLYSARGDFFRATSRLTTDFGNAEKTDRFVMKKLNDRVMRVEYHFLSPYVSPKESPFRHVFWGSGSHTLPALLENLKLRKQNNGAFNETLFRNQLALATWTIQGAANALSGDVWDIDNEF

Row | Binder | IC50, SKBR-3 cell viability, MMAF conjugate
26 | B1 | 2.5 nM
27 | B2 | 3 nM

biological target: T2, CD71 on SK-BR-3 cells; test: cell-based or functional assay; remark: another data set of the same source

Row | Binder | IC50, SK-BR3 viability, MMAF conjugate, no competitor | IC50, SK-BR3 viability, MMAF conjugate, with 0.6 uM holo-human transferrin
28 | B24 | > 0.005 nM | 0.6 nM

biological target: T1, recombinant biotinylated CD71 …; test: screening ELISA, ratio; remark: another data set of the same source

Row | hCD71:HSA | Binder
29 | 514 | B3
30 | 656 | B4
31 | 1520 | B5
32 | 332 | B6
33 | 2960 | B7
34 | 1160 | B8
35 | 763 | B9
36 | 32 | B10
37 | 679 | B11
38 | 2210 | B12
39 | 2100 | B13
40 | 1580 | B14
41 | 441 | B15
42 | 1330 | B16
43 | 844 | B17
44 | 503 | B18
45 | 568 | B19
46 | 2910 | B20
47 | 1190 | B21
48 | 126 | B22
49 | 846 | B23

biological target: T2, CD71 on SK-BR-3 cells; test: cell-based or functional assay; remark: another data set of the same source

Row | Binder | IC50, SKBR-3 viability, MMAF conjugate, first unlabelled column (+/- human transferrin) | IC50, SKBR-3 viability, MMAF conjugate, second unlabelled column (+/- human transferrin)
50 | B3 | 27.3 nM | 4.55 nM
51 | B4 | 36 nM | 12 nM
52 | B5 | – | 8.32 nM
53 | B6 | 15.8 nM | 2.46 nM
54 | B7 | 5.49 nM | 1.06 nM
55 | B8 | 27.5 nM | –
56 | B9 | 1.24 nM | 31.2 nM
57 | B10 | – | 5.09 nM
58 | B11 | – | 7.23 nM
59 | B12 | 28.3 nM | 12.7 nM
60 | B13 | 301 nM | 5.9 nM
61 | B14 | 165 nM | 8.54 nM
62 | B15 | – | 28.2 nM
63 | B16 | 33 nM | 39 nM
64 | B17 | 29.3 nM | 18.6 nM
65 | B18 | 47.9 nM | 30.8 nM
66 | B19 | 13.2 nM | 3.7 nM
67 | B20 | 1.75 nM | 10.6 nM
68 | B21 | 24.6 nM | 7.74 nM
69 | B22 | 164 nM | 27.8 nM
70 | B23 | 24.2 nM | 10.4 nM
